Here are results for one variant from IntAct's records for PubMed 18786923.

First the molecules themselves.
B1: Complement factor H (Homo sapiens), P08603 (parent)
chain: MRLLAKIICLMLWAICVAEDCNELPPRRNTEILTGSWSDQTYPEGTQAIYKCRPGYRSLGNVIMVCRKGEWVALNPLRKCQKRPCGHPGDTPFGTFTLTGGNVFEYGVKAVYTCNEGYQLLGEINYRECDTDGWTNDIPICEVVKCLPVTAPENGKIVSSAMEPDREYHFGQAVRFVCNSGYKIEGDEEMHCSDDGFWSKEKPKCVEISCKSPDVINGSPISQKIIYKENERFQYKCNMGYEYSERGDAVCTESGWRPLPSCEEKSCDNPYIPNGDYSPLRIKHRTGDEITYQCRNGFYPATRGNTAKCTSTGWIPAPRCTLKPCDYPDIKHGGLYHENMRRPYFPVAVGKYYSYYCDEHFETPSGSYWDHIHCTQDGWSPAVPCLRKCYFPYLENGYNQNYGRKFVQGKSIDVACHPGYALPKAQTTVTCMENGWSPTPRCIRVKTCSKSSIDIENGFISESQYTYALKEKAKYQCKLGYVTADGETSGSITCGKDGWSAQPTCIKSCDIPVFMNARTKNDFTWFKLNDTLDYECHDGYESNTGSTTGSIVCGYNGWSDLPICYERECELPKIDVHLVPDRKKDQYKVGEVLKFSCKPGFTIVGPNSVQCYHFGLSPDLPICKEQVQSCGPPPELLNGNVKEKTKEEYGHSEVVEYYCNPRFLMKGPNKIQCVDGEWTTLPVCIVEESTCGDIPELEHGWAQLSSPPYYYGDSVEFNCSESFTMIGHRSITCIHGVWTQLPQCVAIDKLKKCKSSNLIILEEHLKNKKEFDHNSNIRYRCRGKEGWIHTVCINGRWDPEVNCSMAQIQLCPPPPQIPNSHNMTTTLNYRDGEKVSVLCQENYLIQEGEEITCKDGRWQSIPLCVEKIPCSQPPQIEHGTINSSRSSQESYAHGTKLSYTCEGGFRISEENETTCYMGKWSSPPQCEGLPCKSPPEISHGVVAHMSDSYQYGEEVTYKCFEGFGIDGPAIAKCLGEKWSHPPSCIKTDCLSLPSFENAIPMGEKKDVYKAGEQVTYTCATYYKMDGASNVTCINSRWTGRPTCRDTSCVNPPTVQNAYIVSRQMSKYPSGERVRYQCRSPYEMFGDEEVMCLNGNWTEPPQCKDSTGKCGPPPPIDNGDITSFPLSVYAPASSVEYQCQNLYQLEGNKRITCRNGQWSEPPKCLHPCVISREIMENYNIALRWTAKQKLYSRTGESVEFVCKRGYRLSSRSHTLRTTCWDGKLEYPTCAKR
partner: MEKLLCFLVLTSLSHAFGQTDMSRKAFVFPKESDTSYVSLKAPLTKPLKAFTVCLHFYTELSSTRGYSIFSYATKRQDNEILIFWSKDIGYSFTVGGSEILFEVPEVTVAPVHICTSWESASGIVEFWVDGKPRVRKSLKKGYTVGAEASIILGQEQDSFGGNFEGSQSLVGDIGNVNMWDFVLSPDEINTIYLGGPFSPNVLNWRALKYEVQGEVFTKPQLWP

One assay covers variants of B1. Conditions: with crp_human CRP.
For Y402H, the “effect of a mutation on the interaction” value was “with no effect”.

Variants of B1 are the subject of a further assay. Conditions: with crp_human CRP. The source holds these as a separate data set.
Consider Y402H, for which the “effect of a mutation on the interaction” value was “decreasing interaction strength”.
